Laboratory results published in a protein production outcome set (Wang et al. 2014).

Assay: label from the status in PepcDB records
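Also: failed if final PepcDB status was selected cloned or expressed and not failed if soluble or beyond.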

Sequence	protein production
MVKTMAKKKAVKVLRKQKKRETLRRFTQKQNIGRACLTAQEFRLLQRMSHSSKALRNVGLYTMKQSYLNHNKMATVKEVDIAMQADMNYWGIQSNSLQAIRRALFTEVKSFFKALEKWKKNPEKFTGRPKFPNYSHSTDKRIIEIYQVPKVDENGFWMIPMSVAFRKKFGSIKIRMPKNLRNKNISYIEIVPKQKGRFFEVHYTYEMHVSQMKKQPMTTSNALGCDLGVDRLVSCVTNTGDAFLIDGKKLKSINQYFNKTIRNLQQKNVENGLSKRIVTNKIAALWHKRERQIHGYIAQTVGLLFKKVKEFDIDTIVVGYNAGWKQNSHMGKKNNQKFVQIPFHKLIAAIENKCIKEGIRFFKQEESYTSKASFLDKDPVPVWSKDDRTQYRFSGKRITRGLYQSKAGTCIHADINGALNTLQKSQVVELDGNLKVKTPILLEVQKRKAVASRIALEHHHHHH	failed
MEAKKYQAFWRGAIILTIASFVTKVLSAFYRIPYQNIAGDVGFYIYQQIYPFYGFCLILATYGFPVIISKMVAERLERGKQKEAEEIICVSFWFLLGIGFIGFFTLFFGAETIAVAMGDIHLDKLLRVISFSFLLMPFLSVARGYFQGFNNMMPTAVSQVIEQTIRVSIIVFLSLFLIAHGFDLYTVGAGAMLGSIAGGLIGIIVLILYMRQDFRSIFFKSAARIKGKRKIVKILFWQGLAICVSNLVLIFIQMADSVSFYSLLIGAGEQAENAKVLKGVYDRSIPLMQLGTVVTTSFSLSLIPIITAAKERGDLSFIQEKVKLAMKITFVIGLAAAIGLTCIIQPTNIMLFENSDGSDVLSILSLSILFSSLSITTASILQGLGQTFKPALFVVFAGCLKLALNYIFMPYFGVKGAAFATLCALIIISGLNSLLLTRAVSGSLINKRNMLGIVISGICMGFVLMMFTRVLQMSGLVINTEHRGSATLEALLGVAIGGLTYMFFILKLRVFTKKELGTVMKQEKKEGSLKKSG	failed
MYHILFRRKSIVPAYNESTTIVSSIDSLLHLDYEAYEIIVVDDGSSDNTSDVLKEEFALMKISNTIDSIIATQTCKDVFQRQVGKVKLTLIVKENGGKGDALNMGINAANYDYFLCLDADSMLQVDSLSQISKSIQVDPTVIAVGGLVQVAQGVKIEQGKVASYRLPWRIIPCAQALEYDSSFLGARIFLDYLRANLIISGAFGLFKKDLVKAVGGYDTQTLGEDMELVMKLHFFCRNNNIPYRICYETDAVCWSQAPTNLGDLRKQRRRWYLGLYQCLKKYKSIFANYRFGAVGSISYIYYILFELLTPFIECFGIVIIFLSLLFNQLNIPFFISLVSLYIFYCVLITLSSFLHRIYSQQLVIGILDIVKVFYIAVFRYLILHPVLTFVKVASVIGYKNKKMVWGHITREKQMKDFETSVT	failed
MKKLYRYVLFTFLLIFSQLSFANWDLTDNQPIEISAQATNIEADIRALPEQHFFSNNDYAQVKRLLSTTISQQKEHATALKEALATYREDSSNQNWIAVETVHQSLTSLNLSKEQLLKLTNSTTREQLTGFGPYGVTQFYSELSITKLNIEYYLHYQIRSFKNLLKDLTISPVPIISVIFKVLCVFFIFSWWMKNSSRLINDFKTSKLENGTKPNFFIRSIWYLTRAHKAIAWLLLITVTLRIVSTLPSLQHLIFLEIFTWWILGGSIAVSFILEFIYRNSKHNKKEIIALRLSTVRHYVWGIIVAGVILQISSRTLGQGTIYAWINSLMYLFFVLLTIHTLRKWKPTVFERIERVDPLPLSIQWAKRNQKTFLISIAATACGAAWLSWRALQHSIIALLSQYAAFSHALAYLFRIEVAKQTEVAREQSNLVRVKGTAAFDYIAPGSEDSELIEDYAKDEMSALSRYLLTESPAVCVLSGERGVGTTTLLNRILNKVKNATPIYINCPYDGYSALLPELAKQLGLDEESSERDILQYLRNSDTCYLLAFDSAQRLVKPKVNGLADLMKLTNLLRRARKSHRVVLAIEKSCWRFIDRARGERLLFDLVTFMPKWDEKQIGQLLESRITLSEGQPTISFDGLVLPRQWDEENLTEEERARNGFYRILWDYSDGNPTVALRFFRLSLHRDKDTDAILVRLFRAPHSDDLETMPKPMLAVLRSIVQLEVASPADVCDCSRLSMAEVISTLRYFQSRGYIEWSDDKARISDHWFRHITNVLHRQHLLVK	failed
SKIHNVGSPLKSQNHPDSRAIMYEETTYSKKKIIDFLSALEGFKVMCKIIGIMEEVADGFKSKILKQVISLQTKNPEGRFPDLTVELNRWDTAFDHEKARKTGLITPKAGFDSDYDQALADIRENEQSLLEYLEKQRNRIGCRTIVYWGIGRNRYQLEIPENFTTRNLPEEYELKSTKKGCKRYWTKTIEKKLANLINAEERRDVSLKDCMRRLFYNFDKNYKDWQSAVECIAVLDVLLCLANYSRGGDGPMCRPVILLPEDTPPFLELKGSRHPCITKTFFGDDFIPNDILIGCEEEEQENGKAYCVLVTGPNMGGKSTLMRQAGLLAVMAQMGCYVPAEVCRLTPIDRVFTRLGASDRIMSGESTFFVELSETASILMHATAHSLVLVDELGRGTATFDGTAIANAVVKELAETIKCRTLFSTHYHSLVEDYSQNVAVRLGHMACMVENECEDPSQETITFLYKFIKGACPKSYGFNAARLANLPEEVIQKGHRKAREFEKMNQSLRLFREVCLASERSTVDAEAVHKLLTLIKEL	failed
RTFESVADLAAAAGEKVGQSDWVTITQEEVNLFADATGDHQWIHVDPERAAAGPFGTTIAHGFMTLALLPRLQHQMYTVKGVKLAINYGLNKVRFPAPVPVGSRVRATSSLVGVEDLGNGTVQATVSTTVEVEGSAKPACVAESIVRYVA	not failed
MNDIYFDDNRHNWNDRARLHEEAGYGIDKLLSDRDYITPEVEQDKDLIGDLTNKDVLHLQCHLGTDTISLARLGARRVLGLDLSDESLRRARNLAKKAGVSIDFIEGNVYDAREVIVGDFDLIYTSLGVLCWLPDITAWGRVVASLLKSGGKFIIRDDHPMFMTIGEDVRDGFKIEQPYFEQSQPMTWEDEGSYIETDASFEKIKNTRNHQWNHALSEIIMALINAGLQIDLVSESQHAAWNIWPHLMEKCSDGSYRLKKHSEVLPLQFLISAHKPEA	failed
MKKATMLTYLEEQLEKHLGDYEVGLDWDRKNHTIEVIVRLYAENNEQVAIDDVDGTLSEEEFIEFEDGLLFYNPQKSVVDDEEYLVTIPYEGKKGLRKAVLDGFIHYLKVVLDEGQSDLLDFLSDETAEVFELHWEPADFEAMIKKVAETEKEQWIAYPSY	not failed
QAQITGRPEWIWLALGTALMGLGTLYFLVKGMGVSDPDAKKFYAITTLVPAIAFTMYLSMLLGYGLTMVPFGGEQNPIYWARYADWLFTTPLLLLDLALLVDADQGTILALVGADGIMIGTGLVGALTKVYSYRFVWWAISTAAMLYILYVLFFGFTSKAESMRPEVASTFKVLRNVTVVLWSAYPVVWLIGSEGAGIVPLNIETLLFMVLDVSAKVGFGLILLRSRAIFGEAEAPEPSAGDGAAATSD	failed
MKMYEVKEFSSGKRKLEDYKSIIGEEEVSKIQEKAEKLKGRSFVHVNSTSFGGGVAEILHSLVPLLRSIGIEARWFVIEGPTEFFNVTKTFHNALQGNESLKLTEEMKELYLNVNRENSKFIDLSSFDYVLVHDPQPAALIEFYEKKSPWLWRCHIDLSSPNREFWEFLRRFVEKYDRYIFHLPEYVQPELDRNKAVIMPPSIDPLSEKNVELKQTEILRILERFDVDPEKPIITQVSRFDPWKGIFDVIEIYRKVKEKIPGVQLLLVGVMAHDDPEGWIYFEKTLRKIGEDYDVKVLTNLIGVHAREVNAFQRASDVILQMSIREGFGLTVTEAMWKGKPVIGRAVGGIKFQIVDGETGFLVRDANEAVEKVLYLLKHPEVSKEMGAKAKERVRKNFIITKHMERYLDILNSLGGLEHHHHHH	not failed
MERLNSKLFVENCYIMKENERLRKKAELLNQENQQLLFQLKQKLSKTKNSNNGSNNDNKSSSASGQS	failed
MDSLIPFDYATLRVLWWLLLGALLIGFAVMDGFDLGVAALLPLVAKTDVERRVVLNVVGPVWEGNQVWLITAGGAIFAAWPLLYAASFSGFYLAMMLVLIALILRPVGFKYRSKMEGTRWRSRWDAVLCFCGVVAALVFGVAMGNIILGVPFGFDAATLRPEYEGHFYQLFKPFALLAGLVSVAMMVMHGGVLLAWRTHDPVSSRARNWGRLAALVTAALFVAGGFWVAYGLDGHVITSAVDMHAPSNPMLKTVELQAGGWMANYEKWPLTWIAPALGVGGALLAFVLLSARANVLAFLASSVSIAGIILTVGFALFPFIMPSSSRPGAGLTVWDGSSSLLTLWIMLLAVAFFLPIITVYTAWVYRVMRGKVTEDSVDGTPNSY	failed
MRNKQSLVFLASSLFLLILAPITSEAISNPSTNINEVNREIVEESANDQATSAPSHSETLEQEPSLETTTTTDNHPAETDQSTATLEPSEQQKDDGTSATESVIVEPQPRMLAAPYATSLPDDPNIIPIDKVFQEPIGNATSILEGGKLLQLNPAVKSQKGAIWSKKPISLLSDFTFKSYLYLGNEYANAGDGMTFTLTNDPRMSTTPQEVIGSPGMGIGAYSTKAGQPYVRNALSIEFDTYKNTGSSNRMDREISQDKGNGHLAFVTPKANNNNYTGEHSGVTVAPTYLSNGTWRMLTVHWNAATKALTYDLEGVGTNTYVVSDLNAQFGATTVYWGFTSSTGGKYQENALAMTQIPTNVTSQAALSVNGQEFSSAVEAVKNDQVRLRNTLNIDNDFIEDRQPQVSIDLPDELAYEENSLTIDGKKVAAKDLTQTGNHLTIALNDYLVLKKDMMIELKTTLQDNTPEKVLTMNFDYYEEGTLLQKSNNVTITIPKPTEKTVTVFYKDAEGKDIAPPKSVTGKIGAPYQEKPLDISGYVFTKDSGNAEGTMTEETKDIYFYYRLGELYFKEAPKQITFGTEKIRNQPLIKLGHPTEGLKVVDERNANNWRLQLKQTQPLTNDSIVMPDVFSFVSTAGSSQITNEAITLLESNQKGETDLTALLDESKQQGIQINVPVAYQRVGTFKARLSWALEDVPGN	failed
MLEQGLDYVVKLAKSKKQILDANPMQYFIRAALAGIYIGFIIVLCFKLGNFFHIADSPATYLAASMFFGIALVLIIYGGAELFTGNTMYFTVATLRKETTISDTLRNWVACYAGNLAGALFFALLFYATGIFEAIDHGHLMNKVVEGKMNTPTMQLFFKAILCNWLVCLACFLPSQVKGDTAKIMIMMLLVFTFFLSGYEHSIANLSLFALSLVSPHPETISFAGAIHNLIPVTIGNIIGGSVFVGMVYHYLTKKVPDVKQEETELVAAQQEEIIPLQAHMKH	failed
QGEEMNRSQEVTRDEESTRSEEVTREEMAAAGLTVTVTHSNEKHDLHVTSQQGSSEPVVQDLAQVVEEVIGVPQSFQKLIFKGKSLKEMETPLSALGIQDGCRVMLIGKKNSPQEEV	failed
MTDRYIAFANSPVGRRLVGAVGLPSPLRLERWQAGRVRPVDGPLVIGGSGALAEAVLPFAGKLTDAVFAAVDGQFELPRWTAEHSPRAKAVLFDASGLTRFEQLVALRDFFQPVLKGLDKCPKVVVLGRPPESLKDPVTASVQRSLEGFTRSLGKEIRRGGNVQLLYVGKGAEDQLEGALRFFLSPKSAYVSGQVIRLAANSAQVHDWSKPLAGQRALVTGAARGIGAAIAETLARDGAEVVLLDVPPAREALEGLAARLGGRAVALDICAADAGQQLVEALPEGVDIVVHNAGITRDKTLAKMSSDFWNSVINVNLNAPQVLTQALLDGGKLHDNGRVVLLASISGIAGNLGQSNYAVSKAGLIGLAQAWAPALGKRGITINAVAPGFIETQMTAAIPLTIREAGRRMNSMSQGGLPQDVAETVAWFAQPSSGAVSGQVLRVCGQSLLGA	failed
